Measurements taken from PMC5344332, “A new mode of DNA binding distinguishes Capicua from other HMG-box factors and explains its mutation patterns in cancer”.

Key:
[1] = target: T1, Hs CIC HMG-C1-His (Homo sapiens, UniProt Q96RK0-2;Q96RK0-2 188-288;1451-1527); test: EMSA; 60 mM Hepes pH 7.9, 20 mM Tris-HCl pH 7.9, 300 mM KCl, 5 mM EDTA, 5 mM DTT, 12% glycerol, 1 ug poly(dI-dC), 1 ug BSA, ~1 ng probe in 20 ul; 20 min on ice; 5% native PAGE in 0.5X TBE at 4 C; settings: protein: recombinant; tags: His; copies: 1;1; label: 32P
T1 sequence (Q96RK0 1097-1197, chain 1 of 2): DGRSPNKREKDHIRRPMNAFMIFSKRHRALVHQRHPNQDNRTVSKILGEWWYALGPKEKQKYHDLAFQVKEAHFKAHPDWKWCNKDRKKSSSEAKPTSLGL
T1 sequence (Q96RK0 2360-2436, chain 2 of 2): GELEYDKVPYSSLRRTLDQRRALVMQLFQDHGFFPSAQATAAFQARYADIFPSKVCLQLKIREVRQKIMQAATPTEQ

[2] = target: T1, Hs CIC HMG-C1-His; test: EMSA; similar affinity to longer probes; 60 mM Hepes pH 7.9, 20 mM Tris-HCl pH 7.9, 300 mM KCl, 5 mM EDTA, 5 mM DTT, 12% glycerol, 1 ug poly(dI-dC), 1 ug BSA, ~1 ng probe in 20 ul; 20 min on ice; 5% native PAGE in 0.5X TBE at 4 C; settings: protein: recombinant; tags: His; copies: 1;1; label: 32P

Binder | binding result [1] | binding result [2]
CBS syn (dsDNA) DNA 1: GGGAATTAAGTTGAATGAATAGGCTGGGCC DNA 2: GGCCCAGCCTATTCATTCAACTTAATTCCC | binds | –
ETV5 18-bp CBS (dsDNA) DNA 1: GGTTATGAATGAAAAACC DNA 2: GGTTTTTCATTCATAACC | – | binds
